# B1: CPEB3 Ribozyme (parent)
# chain: UAACAGGGGGCCACAGCAGAAGCGUUCACGUCGCAGCCCCUGUCAGAUUCUGGUGAAUCUGCGAAUUCUGCUGUAUAUCUC
# Variants of: B1
# Test: self-cleavage, relative activity (ratio to wild type); higher = more cleavage; in vitro, sequencing
# In short: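 After error-prone PCR and barcoding, CPEB3 ribozyme mutant libraries were transcribed with T7 RNA polymerase at 37°C for 5 hours, then given 15 min with DNase I before an EDTA stop, and they cleaved during both steps. Reverse transcription with template switching preceded Illumina sequencing. Relative activity divides a variant's cleaved/total read fraction by the unmutated ribozyme's. At least 5 reads were required per variant, and three batches were averaged.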
row,Variant,self-cleavage
1,CAACAGGGGGCCACAGCAGAAGCGUUCACGUCGCAGCCCCUGUCAGAUUCAGGUGAAUCUGCGAAUUCUGCUGUAUAUCUC,0.8
2,CAACAGGGGGCCACAGCAGAAGCGUUCACGUCGCAGCCCCUGUCAGAUUCCGGUGAAUCUGCGAAUUCUGCUGUAUAUCUC,0.7
3,CAACAGGGGGCCACAGCAGAAGCGUUCAUGUCGCAGCCCCUGUCAGAUUCUGGUGAAUCUGCGAAUUCUGCUGUAUAUCUC,0.33
4,CAACAGGGGGCCACAGCAGAAGCGUUCAAGUCGCAGCCCCUGUCAGAUUCUGGUGAAUCUGCGAAUUCUGCUGUAUAUCUC,0.32
5,CAACAGGGGGCCACAGCAGAAGCGUUCACGUCACAGCCCCUGUCAGAUUCUGGUGAAUCUGCGAAUUCUGCUGUAUAUCUC,0.32
6,CAACAGGGGGCCACAGCAGAAGCGUUCACGUCGCAGCCCCCGUCAGAUUCUGGUGAAUCUGCGAAUUCUGCUGUAUAUCUC,0.87
7,CAACAGGGGGCCACAGCAGAAGCGUUCACGUCGCAGCCCCGGUCAGAUUCUGGUGAAUCUGCGAAUUCUGCUGUAUAUCUC,0.53
8,CAACAGGGGGCCACAGCAGAAGCGUUCACGUCGCAGCCCCAGUCAGAUUCUGGUGAAUCUGCGAAUUCUGCUGUAUAUCUC,0.21
9,CAACAGGGGGCCACAGCAGAAGCGUUCACGUCGCAGCCCCUGUCAGAUUCUGGUGAAUCUGCAAAUUCUGCUGUAUAUCUC,0.84
10,CAACAGGGGGCCACAGCAGAAGCGUUCACGUCGCAGCCCCUGUCAGAUUCUGGUGAAUCUGCGAAUUGUGCUGUAUAUCUC,0.25
11,CAACAGGGGGCCACAGCAGAAGCGUUCACGUCGCAGCCCCUGUCAGAUUCUGGUGAAUCUGCGAAUUAUGCUGUAUAUCUC,0.37
12,CAACAGGGGGCCACAGCAGAAGCGUUCACGUCGCAGCCCCUGUCAGAUUCUGGUGAAUCUGCGAAUUCUGCUGUAUAUAUC,1.03
13,CAACAGGGGGCCACAGCAGAAGCGUUCACGUCGCAGCCCCUGUCAGAUUCUGGUGAAUCUGCGAAUUCUGCUGUAUAUUUC,0.8
14,CAACAGGGGGCCACAGCAGAAGCGUUCACGUCGCAGCCCCUGUCAGAUUCUGGUGAAUCUGUGAAUUCUGCUGUAUAUCUC,0.32
15,CAACAGGGGGCCACAGCAGAAGUGUUCACGUCGCAGCCCCUGUCAGAUUCUGGUGAAUCUGCGAAUUCUGCUGUAUAUCUC,0.47
16,CAACAGGGGGCCACAGCAGAAGGGUUCACGUCGCAGCCCCUGUCAGAUUCUGGUGAAUCUGCGAAUUCUGCUGUAUAUCUC,0.42
17,CAACAGGGGGCCACAGCAGAAGCGUUCACGUAGCAGCCCCUGUCAGAUUCUGGUGAAUCUGCGAAUUCUGCUGUAUAUCUC,0.26

row,Variant,self-cleavage
1,CAACAGGGGGCCACAGCAGAAGCGUUCACGUCGCAGCCCCUGUCAGAUUCUGGAGAAUCUGCGAAUUCUGCUGUAUAUCUC,1.03
2,CAACAGGGGGCCACAGCAGAAGCGUUCACGUCGCAGCCCCUGUCAGAUUCUGGCGAAUCUGCGAAUUCUGCUGUAUAUCUC,0.68
3,CAACAGGGGGCCACAGCAAAAGCGUUCACGUCGCAGCCCCUGUCAGAUUCUGGUGAAUCUGCGAAUUCUGCUGUAUAUCUC,0.32
4,CAACAGGGGGCCACAGCAUAAGCGUUCACGUCGCAGCCCCUGUCAGAUUCUGGUGAAUCUGCGAAUUCUGCUGUAUAUCUC,0.4
5,CAACAGGGGGCCACAGCAGAAGCCUUCACGUCGCAGCCCCUGUCAGAUUCUGGUGAAUCUGCGAAUUCUGCUGUAUAUCUC,0.31
6,CAACAAGGGGCCACAGCAGAAGCGUUCACGUCGCAGCCCCUGUCAGAUUCUGGUGAAUCUGCGAAUUCUGCUGUAUAUCUC,0.3
7,CAACACGGGGCCACAGCAGAAGCGUUCACGUCGCAGCCCCUGUCAGAUUCUGGUGAAUCUGCGAAUUCUGCUGUAUAUCUC,0.56
8,CAACAGGGGGCCACAGCAGAAGCGUUCACGUCGCAGCCCCUGUCAGAUCCUGGUGAAUCUGCGAAUUCUGCUGUAUAUCUC,0.37
9,CAACAGGGGGCCACAGCAGAAGCGUUCACGUCGCAGCCCCUGUCAGAUACUGGUGAAUCUGCGAAUUCUGCUGUAUAUCUC,0.61
10,CAACAGGGGGCCACAGCAGAAGCGCUCACGUCGCAGCCCCUGUCAGAUUCUGGUGAAUCUGCGAAUUCUGCUGUAUAUCUC,0.32
11,CAACAGGGGGCCACAGCAGAAGCGGUCACGUCGCAGCCCCUGUCAGAUUCUGGUGAAUCUGCGAAUUCUGCUGUAUAUCUC,0.22
12,CAACAGGGGGCCACAGCAGAAGCGAUCACGUCGCAGCCCCUGUCAGAUUCUGGUGAAUCUGCGAAUUCUGCUGUAUAUCUC,0.37
13,CAACAGGGGGCCACAGCAGAAGCGUUCACGUCGCAGCCCCUAUCAGAUUCUGGUGAAUCUGCGAAUUCUGCUGUAUAUCUC,0.45
14,CAACAGGGGGCCACAGCAGAAGCGUUCACGUCGCAGCCCCUGUCAGAUUCUGAUGAAUCUGCGAAUUCUGCUGUAUAUCUC,0.98
15,CAACAGGGGGCCACAGCAGAAGCGUUCACGUCGCAGCCCCUGUCAGAUUCUGUUGAAUCUGCGAAUUCUGCUGUAUAUCUC,0.72
16,CAACAGGGGGCCACAGCAGAAGCGUUCACGUCGCACCCCCUGUCAGAUUCUGGUGAAUCUGCGAAUUCUGCUGUAUAUCUC,0.2
17,CAACAGGGGGCCACAGCAGAAGCGUUCACGUCGCAACCCCUGUCAGAUUCUGGUGAAUCUGCGAAUUCUGCUGUAUAUCUC,0.21

# Source: the RNAGym collection of RNA variant scans (doi:10.1093/nar/gkz1192)
